Test results reported in publication PMC9763398.

Tests used:
TGF-β receptor 1 = TGF-β receptor 1 (UniProt P36897); test: co-immunoprecipitation, western blot; settings: reference: wild type Hsp90ab1; sites S225,S254
DYRK1A = DYRK1A (UniProt Q13627); test: immunofluorescence co-localisation, confocal overlap index

Row | binding against the reference (TGF-β receptor 1) | other: average overlap index (DYRK1A; reference: wild type Hsp90ab1, sites S225,S254) | other: average overlap index (DYRK1A; reference: wild type β-catenin, sites T551,S552) | Substance
1 | weaker | weaker; reference 0.5378 |  | Hsp90ab1 (from UniProt P08238) S225A S254A Hsp90ab1
2 |  |  | weaker; reference 0.8419 | β-catenin (from UniProt P35222) T551A S552A β-catenin
